# “Also recorded” adds a separate entry of the source.
# Experiments:
# Col4a3-/- mice [1] = conditions: cited from earlier work
# [2] = test system: rheumatoid synovial cells; conditions: rheumatoid synovial cells upon treatment; cited from earlier work
# [3] = target: T1, mouse IL11 receptor IL11RA1 (mouse, UniProt Q64385 24-432); experiment: immunohistochemistry on mouse kidney sections (wild-type vs Il11ra1-/-)
# T1 construct: whole, on cells; Endogenous protein detected in tissue sections; also called IL-11Rα
# T1 sequence (looked up): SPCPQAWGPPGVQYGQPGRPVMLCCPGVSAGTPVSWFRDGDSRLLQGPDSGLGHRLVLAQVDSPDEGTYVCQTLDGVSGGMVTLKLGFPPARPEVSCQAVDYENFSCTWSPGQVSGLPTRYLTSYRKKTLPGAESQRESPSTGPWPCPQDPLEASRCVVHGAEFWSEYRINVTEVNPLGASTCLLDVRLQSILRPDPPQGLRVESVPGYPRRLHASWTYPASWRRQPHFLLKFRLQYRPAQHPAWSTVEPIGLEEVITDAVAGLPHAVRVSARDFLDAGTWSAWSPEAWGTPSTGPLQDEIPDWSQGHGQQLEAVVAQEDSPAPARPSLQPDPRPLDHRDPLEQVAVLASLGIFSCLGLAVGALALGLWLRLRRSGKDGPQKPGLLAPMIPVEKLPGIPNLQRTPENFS
# From the text: FIGS. 2A to 2E. […] (2A-2C) Renal (2A) II11 RNA and (2B-2C) IL11 protein expression in wildtype and Col4a3^{-/-} mice. (2D) Immunohistochemistry staining of IL11RA with anti-IL11RA (X209) or IgG (11E10) as control on the kidneys of wild-type and II11ra1^{-/-} mice (scale bars, 20 μm). (2E) Comparison of II11ra1 and gp130 expression in mouse kidney cells based on single cell transcriptomic analysis by Park et. al.¹⁶. (2A) Data are shown as box-and-whisker with median (middle line), 25th-75th percentiles (box) and min-max values (whiskers), (2C) data are shown as mean±SD; 2-tailed Student's t-test. FC: fold change.
# (§1) Kidneys were fixed in 10% neutral-buffered formalin (NBF), paraffinized, cut into 7 μm sections, incubated with primary antibodies overnight and visualized using an ImmPRESS HRP anti-rabbit IgG polymer detection kit (MP-7401, Vector Laboratories) with ImmPACT DAB Peroxidase Substrate (SK-4105, Vector Laboratories). Quantification of WT^+ve cells were performed in a blinded fashion from 4 images (200× field)/kidney (n=3-4 kidneys/group).
# [4] = test system: mice homozygous for the Col4a3tm1Dec mutation; experiment: Survival in mouse model of Alport syndrome (Example 1); format: in vivo; conditions: 20 mg/kg intraperitoneal, biweekly, from 6 weeks of age until mortality
# From the text: 129-Col4a3^tm1Dec/J mice were obtained from The Jackson Laboratory (Stock No:002908; COL4A3 KO). The mice comprise the Co/4a3^tm1Dec mutation described e.g. in Cosgrove et al., Genes Dev. (1996) 10:2981-2992, which is hereby incorporated by reference in its entirety. 129-Col4a3^tm1Dec/J mice comprise a targeted mutation to Col4a3, resulting in progressive glomerulonephritis with microhematuria and proteinuria, and mice homozygous for the mutation typically die at about 8.5 weeks.
# From 6 weeks of age, mice homozygous for the Co/4a3^tm1Dec mutation were administered biweekly by intraperitoneal injection of 20 mg/kg of Enx203, or an isotype-matched control antibody, until mortality.
# Col4a3-/- mice [5] = experiment: Lifespan study in Col4a3-/- mice (Example 2); format: in vivo, mouse; conditions: 20 mg/kg 2x/week from 6 weeks of age until death
# Description: (§2) Col4a3^−/− (Col4a3^tm1Dec) mice were purchased from The Jackson Laboratory (https://www.jax.org/strain/002908). Mice were housed in temperatures of 21-24° C. with 40-70% humidity on a 12 h light/12 h dark cycle and provided with food and water ad libitum. For treatment study, Col4a3^−/− were administered 20 mg/kg of anti-IL11 (X203) or IgG isotype control (11E10) by intraperitoneal (IP) injection starting from 6 weeks of age twice a week for 2.5 weeks; wild-type littermates were used as controls. Mice were sacrificed for blood and kidney collection when they were 8.5-week-old. For lifespan study, IgG/X203 was administered to 6-week-old Col4a3^−/− (2×/week) until death ensued.
# Statistical analyses were performed using GraphPad Prism software (version 8). Statistical significance between control and experimental groups were analysed by twosided Student's t tests or by one-way ANOVA as indicated in the figure legends. P values were corrected for multiple testing according to Tukey when several conditions were compared to each other within one experiment. Comparison analysis for two parameters from two different groups were performed by two-way ANOVA. Survival curves were analyzed by Gehan-Breslow-Wilcoxon test. The criterion for statistical significance was P<0.05.
# Col4a3-/- mice [6] = experiment: Treatment study in Col4a3-/- mice: body weight and kidney weight; format: in vivo, mouse
# Description: as §2
# [7] = test system: kidneys of Col4a3-/- mice; experiment: Treatment study: kidney fibrosis (renal collagen content, Masson's Trichrome staining); format: in vivo, mouse; conditions: 20 mg/kg IP 2x/week from 6 weeks for 2.5 weeks; vs IgG
# Description: as §2
# Kidney tissues were fixed for 48 hours at RT in 10% neutral-buffered formalin (NBF), dehydrated, embedded in paraffin, and sectioned at 7 μm. Transverse kidney sections were then stained with Masson's Trichrome according to standard protocol. Images of the sections were captured by light microscopy and blue-stained fibrotic areas were semi-quantitatively determined with Image-J software (color deconvolution-Masson Trichrome) from the whole kidney area (100× field, n=4 kidneys/group). Treatment and genotypes were not disclosed to investigators performing the histology and generating semi-quantitative readouts.
# [8] = test system: kidneys of Col4a3-/- mice; experiment: Treatment study: renal mRNA expression by qPCR; format: in vivo, mouse; conditions: 20 mg/kg IP 2x/week from 6 weeks for 2.5 weeks
# Description: as §2
# Total RNA was extracted from snap-frozen kidney tissues using Trizol (Invitrogen) followed by RNeasy column (Qiagen) purification. cDNAs were synthesized with iScript™ cDNA synthesis kit (Bio-Rad) according to manufacturer's instructions. Gene expression analysis was performed on duplicate samples with either TaqMan (Applied Biosystems) or fast SYBR green (Qiagen) technology using StepOnePlus™ (Applied Biosystem) over 40 cycles. Expression data were normalized to GAPDH mRNA expression and fold change was calculated using 2^−ΔΔct method. The sequences of specific TaqMan probes and SYBR green primers are available upon request.
# [9] = test system: kidneys of Col4a3-/- mice; experiment: Treatment study: Western blot of kidney protein extracts; format: in vivo, mouse; conditions: 20 mg/kg IP 2x/week from 6 weeks for 2.5 weeks; vs IgG
# Description: as §2
# Western blot was carried out on total protein extracts from mouse kidney tissues. Kidneys were lysed in radioimmunoprecipitation assay (RIPA) buffer containing protease and phosphatase inhibitors (Thermo Scientifics), followed by centrifugation to clear the lysate. Protein concentrations were determined by Bradford assay (Bio-Rad). Protein lysates were separated by SDS-PAGE, transferred to PVDF membrane, and subjected to immunoblot analysis for various antibodies as outlined in the main text, figures, or and/or figure legends. Proteins were visualized using the ECL detection system (Pierce) with the appropriate secondary antibodies: anti-rabbit HRP or antimouse HRP.
# [10] = test system: kidneys of Col4a3-/- mice; experiment: Treatment study: Wilms' Tumor 1 immunohistochemistry (podocytes); format: in vivo, mouse; conditions: 20 mg/kg IP 2x/week from 6 weeks for 2.5 weeks, vs IgG
# Description: as §2, §1
# Col4a3-/- mice [11] = experiment: Treatment study: renal function by colorimetric assays (BUN, creatinine, urinary albumin:creatinine); format: in vivo, mouse; conditions: 20 mg/kg 2x/week from week 6; study end 8.5 weeks of age; vs IgG
# Description: as §2
# The levels of blood urea nitrogen (BUN) and creatinine in mouse serum were measured using Urea Assay Kit (ab83362, Abcam) and Creatinine Assay Kit (ab65340, Abcam), respectively. Urine albumin and creatinine levels were measured using Mouse Albumin ELISA kit (ab108792, Abcam) and Creatinine Assay Kit (ab204537, Abcam), respectively. All ELISA and colorimetric assays were performed according to the manufacturer's protocol.
# [12] = treatment of 4-week-old mice, prior to onset of proteinuria and tubulointerstitial fibrosis
molecule,measurement,setting,value
CCOC(=O)[C@H](CCc1ccccc1)N[C@@H](C)C(=O)N1[C@H](C(=O)O)C[C@@H]2CCC[C@@H]21 [ramipril],effect of delayed treatment,Col4a3-/- mice [1]; treatment delayed until after proteinuria was established (6-week-old mice),ineffective; also recorded: no beneficial effect
same,kidney dysfunction,Col4a3-/- mice [1]; [12],attenuated
same,lifespan,Col4a3-/- mice [1]; [12],prolonged
"COc1ccc2c(c1)c(CC(=O)O)c(C)n2C(=O)c1ccc(Cl)cc1 [indomethacin, reference compound]",expression of IL-11,[2],reduction
"anti-IL11RA antibody X209 (antibody, V domains shown, also called Enx209; anti-IL11RA (X209, Aldevron)) VH: QVQLQQPGAELVRPGSSVKLSCKASGYTFTNYWMHWLKQRPVQGLEWIGNIGPSDSKTHYNQKFKDKATLTVDKSSSTAYMQLNSLTSEDSAVYYCARGDYVLFTYWGQGTLVTVSA VL: DIVLTQSPATLSLSPGERATLSCRASQSISNNLHWYQQKSHEAPRLLIKYASQSISGIPARFSGSGSGTDFTLSFSSLETEDFAVYFCQQSYSWPLTFGQGTKLEIK",binding result,[3],binds
"X203: mouse anti-mouse IL-11 IgG, neutralizing IL11 antibody; VH SEQ ID NO:22, VL SEQ ID NO:23 (antibody, V domains shown) VH: EVQLQQSGPELVKPGASVKIPCKASGYTFTDYNMDWVKQSHGKSLEWIGDINPHNGGPIYNQKFTGKATLTVDKSSSTAYMELRSLTSEDTAVYYCARGELGHWYFDVWGTGTTVTVSS VL: DIVLTQSPASLAVSLGQRATISCRASKSVSTSGYSYIHWYQQKPGQPPKLLIYLASNLDSGVPARFSGSGSGTDFTLNIHPVEEEDAATYYCQHSRDLPPTFGGGTKLEIK",increase in survival relative to mice treated with isotype-matched control antibody,[4],up to 40%
same,median lifespan,"Col4a3-/- mice [5]; IgG control 62.5 days, P=0.0015",88.5 days
same,extension of median life span,Col4a3-/- mice [5]; vs IgG control,41.6%
same,kidney mass,"Col4a3-/- mice [6]; 20 mg/kg IP 2x/week from 6 weeks for 2.5 weeks, vs IgG",preserved
same,"total body weight loss, as percentage of starting body weight","Col4a3-/- mice [6]; 20 mg/kg IP 2x/week from 6 weeks of age for 2.5 weeks, end of study, IgG control 30%, P=0.0003",17%
same,kidney fibrosis by biochemical and histological assessments,[7],significantly less
same,CC chemokine CcI2 mRNA,[8]; vs IgG,diminished
same,CC chemokine CcI5 mRNA,[8]; vs IgG,diminished
same,Tnfα expression,[8]; vs IgG,reduced
same,proinflammatory interleukin II1b mRNA,[8]; vs IgG,diminished
same,proinflammatory interleukin II6 mRNA,[8]; vs IgG,diminished
same,renal level of Col1a1 gene expression,[8]; vs IgG,reduced
same,renal level of Col1a2 gene expression,[8]; vs IgG,reduced
same,renal level of Col3a1 gene expression,[8]; vs IgG,reduced
same,renal level of Fn gene expression,[8]; vs IgG,reduced
same,renal level of II11 gene expression,[8]; vs IgG,reduced
same,renal level of Tgfb1 gene expression,[8]; vs IgG,reduced
same,renal level of myofibroblast marker Acta2 gene expression,[8]; vs IgG,reduced
same,tubule damage indicator Kim1 mRNA,[8]; vs IgG and wild-type,restored
same,tubule damage indicator Ngal mRNA,[8]; vs IgG and wild-type,restored
same,Caspase 3 activation,[9],reduced
same,ERK phosphorylation in kidneys,[9],largely diminished
same,Podocin protein level (immunoblotting),[9],restored towards normal
same,STAT3 phosphorylation in kidneys,[9],largely diminished
same,Wilms' Tumor 1 protein level (immunoblotting),[9],restored towards normal; also recorded: Preservation of podocytes
same,alpha-smooth muscle actin (αSMA) protein level (reduction seen on transcript),[9],confirmed at the protein level
same,degree of TGFβ upregulation in the kidneys,[9],significantly reduced
same,fibronectin protein level (reduction seen on transcript),[9],confirmed at the protein level
same,Wilms' Tumor 1 (WT1) staining,[10],greater staining
same,number of WT1-positive cells (podocytes),[10]; blinded quantification,restored towards normal; also recorded: significant (P=0.0002) restoration
same,serum blood urea nitrogen (BUN),Col4a3-/- mice [11],markedly lowered
same,serum creatinine (Cr),Col4a3-/- mice [11],markedly lowered
same,urinary albumin:creatinine ratio (ACR),Col4a3-/- mice [11],markedly lowered
"interferon-gamma: interferon-gamma (IFNγ) (protein, UniProt P01579 24-161, looked up) Interferon gamma: QDPYVKEAENLKKYFNAGHSDVADNGTLFLGILKNWKEESDRKIMQSQIVSFYFKLFKNFKDDQSIQKSVETIKEDMNVKFFNSNKKKRDDFEKLTNYSVTDLNVQRKAIHELIQVMAELSPAAKTGKRKRSQMLFRG",expression of IL-11,[2],reduction

# From patent publication US20230212279A1, “TREATMENT AND PREVENTION OF DISEASE CAUSED BY TYPE IV COLLAGEN DYSFUNCTION” (Singapore Health Services PTE, LTD., priority 2020, published 2023)
